Experimental data taken from the supplement of paper PMC11246515.
± gives the standard deviation of the averaged measurements.

Assay: total protein half-life in vivo (active degradation + dilution); higher = more stable protein
[1] = wild type E. coli NCM3722, growth: N-lim chemostat, doubling time 12 h
[2] = E. coli NCM3722 delta-clpP, growth: N-lim chemostat, doubling time 6 h
[3] = E. coli NCM3722 delta-hslV, growth: N-lim chemostat, doubling time 6 h
[4] = E. coli NCM3722 delta-lon, growth: N-lim chemostat, doubling time 6 h
[5] = E. coli NCM3722 delta-smpB, growth: N-lim chemostat, doubling time 6 h
[6] = wild type E. coli NCM3722, growth: C-lim chemostat, doubling time 3 h
[7] = wild type E. coli NCM3722, growth: C-lim chemostat, doubling time 6 h
[8] = wild type E. coli NCM3722, growth: C-lim chemostat, doubling time 12 h
[9] = wild type E. coli NCM3722, growth: N-lim chemostat, doubling time 6 h
[10] = wild type E. coli NCM3722, growth: P-lim chemostat, doubling time 6 h
[11] = wild type E. coli NCM3722, growth: P-lim chemostat, doubling time 12 h
[12] = E. coli NCM3722 delta-clpP delta-lon delta-hslV, growth: N-lim chemostat, doubling time 6 h

| Sequence | total protein half-life in vivo [1] [h] | total protein half-life in vivo [2] [h] | total protein half-life in vivo [3] [h] | total protein half-life in vivo [4] [h] | total protein half-life in vivo [5] [h] | total protein half-life in vivo [6] [h] | total protein half-life in vivo [7] [h] | total protein half-life in vivo [8] [h] | total protein half-life in vivo [9] [h] | total protein half-life in vivo [10] [h] | total protein half-life in vivo [11] [h] | total protein half-life in vivo [12] [h] |
| --- | --- | --- | --- | --- | --- | --- | --- | --- | --- | --- | --- | --- |
| MSHSSAPERATGAVITDWRPEDPAFWQQRGQRIASRNLWISVPCLLLAFCVWMLFSAVAVNLPKVGFNFTTDQLFMLTALPSVSGALLRVPYSFMVPIFGGRRWTAFSTGILIIPCVWLGFAVQDTSTPYSVFIIISLLCGFAGANFASSMANISFFFPKQKQGGALGLNGGLGNMGVSVMQLVAPLVVSLSIFAVFGSQGVKQPDGTELYLANASWIWVPFLAIFTIAAWFGMNDLATSKASIKEQLPVLKRGHLWIMSLLYLATFGSFIGFSAGFAMLSKTQFPDVQILQYAFFGPFIGALARSAGGALSDRLGGTRVTLVNFILMAIFSGLLFLTLPTDGQGGSFMAFFAVFLALFLTAGLGSGSTFQMISVIFRKLTMDRVKAEGGSDERAMREAATDTAAALGFISAIGAIGGFFIPKAFGSSLALTGSPVGAMKVFLIFYIACVVITWAVYGRHSKK | 8.46 |  |  |  |  |  |  |  |  |  |  |  |
| MSHVELQPGFDFQQAGKEVLAIERECLAELDQYINQNFTLACEKMFWCKGKVVVMGMGKSGHIGRKMAATFASTGTPSFFVHPGEAAHGDLGMVTPQDVVIAISNSGESSEITALIPVLKRLHVPLICITGRPESSMARAADVHLCVKVAKEACPLGLAPTSSTTATLVMGDALAVALLKARGFTAEDFALSHPGGALGRKLLLRVNDIMHTGDEIPHVKKTASLRDALLEVTRKNLGMTVICDDNMMIEGIFTDGDLRRVFDMGVDVRQLSIADVMTPGGIRVRPGILAVEALNLMQSRHITSVMVADGDHLLGVLHMHDLLRAGVV | 7.36 ± 0.41 | 4.95 ± 1.9 | 4.36 ± 0.2 | 4.95 ± 0.44 | 4.2 ± 0.2 | 2.92 ± 0.13 | 5.27 ± 0.15 | 10.3 ± 2.3 | 4.29 ± 0.37 | 5.827 ± 0.055 | 11.6 ± 0.54 |  |
| MSIISTKYLLQDAQANGYAVPAFNIHNAETIQAILEVCSEMRSPVILAGTPGTFKHIALEEIYALCSAYSTTYNMPLALHLDHHESLDDIRRKVHAGVRSAMIDGSHFPFAENVKLVKSVVDFCHSQDCSVEAELGRLGGVEDDMSVDAESAFLTDPQEAKRFVELTGVDSLAVAIGTAHGLYSKTPKIDFQRLAEIREVVDVPLVLHGASDVPDEFVRRTIELGVTKVNVATELKIAFAGAVKAWFAENPQGNDPRYYMRVGMDAMKEVVRNKINVCGSANRISA [P0AB74] |  |  |  |  |  | 2.35 ± 1.1 | 3.2 | 4.72 |  |  |  | > 8 |
| MSIKLIAVDMDGTFLSDQKTYNRERFMAQYQQMKAQGIRFVVASGNQYYQLISFFPEIANEIAFVAENGGWVVSEGKDVFNGELSKDAFATVVEHLLTRPEVEIIACGKNSAYTLKKYDDAMKTVAEMYYHRLEYVDNFDNLEDIFFKFGLNLSDELIPQVQKALHEAIGDIMVSVHTGNGSIDLIIPGVHKANGLRQLQKLWGIDDSEVVVFGDGGNDIEMLRQAGFSFAMENAGSAVVAAAKYRAGSNNREGVLDVIDKVLKHEAPFDQ | 2.73 ± 0.66 | 2.026 ± 0.013 | 1.78 ± 0.4 | 2.53 ± 0.083 | 1.92 ± 0.13 | 2.44 ± 0.25 | 3.96 ± 0.16 | 6.88 ± 0.18 | 2.08 ± 0.059 | 2.7 ± 0.7 | 7.59 ± 3.2 | 4.81 ± 0.67 |
| MSIKTIKYFSTIIVAVVAVLAGWWLWNYYMQSPWTRDGKIRAEQVSITPQVSGRIVELNIKDNQLVNAGDLLLTIDKTPFQIAELNAQAQLAKAQSDLAKANNEANRRRHLSQNFISAEELDTANLNVKAMQASVDAAQATLKQAQWQLAQTEIRAPVSGWVTNLTTRIGDYADTGKPLFALVDSHSFYVIGYFEETKLRHIREGAPAQITLYSDNKTLQGHVSSIGRAIYDQSVESDSSLIPDVKPNVPWVRLAQRVPVRFALDKVPGDVTLVSGTTCSIAVGQ | 14.4 ± 1.4 | 4.89 ± 0.55 | 6.39 ± 0.71 | 6.46 ± 0.5 | 5.645 ± 0.01 | 3.43 ± 0.24 | 6.64 ± 0.59 | 11.2 ± 1.9 | 6.093 ± 0.06 | 6.58 ± 0.25 | 12.5 ± 0.34 | 6.427 ± 0.064 |
| MSILTRWLLIPPVNARLIGRYRDYRRHGASAFSATLGCFWMILAWIFIPLEHPRWQRIRAEHKNLYPHINASRPRPLDPVRYLIQTCWLLIGASRKETPKPRRRAFSGLQNIRGRYHQWMNELPERVSHKTQHLDEKKELGHLSAGARRLILGIIVTFSLILALICVTQPFNPLAQFIFLMLLWGVALIVRRMPGRFSALMLIVLSLTVSCRYIWWRYTSTLNWDDPVSLVCGLILLFAETYAWIVLVLGYFQVVWPLNRQPVPLPKDMSLWPSVDIFVPTYNEDLNVVKNTIYASLGIDWPKDKLNIWILDDGGREEFRQFAQNVGVKYIARTTHEHAKAGNINNALKYAKGEFVSIFDCDHVPTRSFLQMTMGWFLKEKQLAMMQTPHHFFSPDPFERNLGRFRKTPNEGTLFYGLVQDGNDMWDATFFCGSCAVIRRKPLDEIGGIAVETVTEDAHTSLRLHRRGYTSAYMRIPQAAGLATESLSAHIGQRIRWARGMVQIFRLDNPLTGKGLKFAQRLCYVNAMFHFLSGIPRLIFLTAPLAFLLLHAYIIYAPALMIALFVLPHMIHASLTNSKIQGKYRHSFWSEIYETVLAWYIAPPTLVALINPHKGKFNVTAKGGLVEEEYVDWVISRPYIFLVLLNLVGVAVGIWRYFYGPPTEMLTVVVSMVWVFYNLIVLGGAVAVSVESKQVRRSHRVEMTMPAAIAREDGHLFSCTVQDFSDGGLGIKINGQAQILEGQKVNLLLKRGQQEYVFPTQVARVMGNEVGLKLMPLTTQQHIDFVQCTFARADTWALWQDSYPEDKPLESLLDILKLGFRGYRHLAEFAPSSVKGIFRVLTSLVSWVVSFIPRRPERSETAQPSDQALAQQ | 8.41 | 3.59 ± 0.068 | 3.23 ± 0.15 |  | 3.25 ± 0.049 | 2.31 ± 0.24 | 3.01 ± 0.81 | 4.36 |  | 3.59 ± 0.75 | 6.3 ± 0.43 | 3.59 |
| MSIRIIPQDELGSSEKRTADMIPPLLFPRLKNLYNRRAERLRELAENNPLGDYLRFAALIAHAQEVVLYDHPLEMDLTARIKEASAQGKPPLDIHVLPRDKHWQKLLMALIAELKPEMSGPALAVIENLEKASTQELEDMASALFASDFSSVSSDKAPFIWAALSLYWAQMANLIPGKARAEYGEQRQYCPVCGSMPVSSMVQIGTTQGLRYLHCNLCETEWHVVRVKCSNCEQSGKLHYWSLDDEQAAIKAESCDDCDTYLKILYQEKDPKIEAVADDLASLVLDARMEQEGYARSSINPFLFPGEGE | 4.72 ± 0.75 | 4.49 ± 0.13 | 3.54 ± 0.26 | 4.36 ± 1.1 | 2.78 ± 0.7 | 1.81 ± 0.24 | 3.48 ± 0.15 | 6.07 ± 2.6 | 3.56 ± 0.28 | 4.06 ± 0.14 | 7.84 ± 0.28 |  |
